The record followed here is patent US20250382352A1 (SCG CELL THERAPY PTE, published 2025).

Residue numbers refer to the chain shown, from its start.

First the molecules themselves.
B1: BsAb2-5-020 (bispecific antibody)
heavy: not shown
light: QTVVTQEPSFSVSPGGTVTLTCRSSTGAVTTSNYANWVQQTPGQAPRGLIGGTNKRAPGVPDRFSGSILGDKAALTITGAQADDESDYYCALWYSNLWVFGGGTKLTVLRTVAAPSVFIFPPSDEQLKSGTASVVCLLNNFYPREAKVQWKVDNALQSGNSQESVTEQDSKDSTYSLSSTLTLSKADYEKHKVYACEVTHQGLSSPVTKSFNRGEC
notes: also called VH4VL5
B2: BsAb2-5-015 (bispecific antibody)
heavy: not shown
light: B1 light
notes: also called VH3VL5
B3: BsAb2-5-004 (bispecific antibody)
heavy: not shown
light: B1 light with V38Y, G48T
notes: also called VH1VL4
B4: BsAb2-6-005 (bispecific antibody)
heavy: not shown
light: B1 light
notes: also called VH1VL5
B5: BsAb2-6-019 (bispecific antibody)
heavy: not shown
light: B1 light with V38Y, G48T
notes: also called VH4VL4 (printed VH4VLA)
B6: BsAb2-5-030 (bispecific antibody)
heavy: not shown
light: B1 light
notes: also called VH6VL5
B7: BsAb2-6-024 (bispecific antibody)
heavy: not shown
light: B1 light with V38Y, G48T
notes: also called VH5VL4
B8: BsAb2-6-004 (bispecific antibody)
heavy: not shown
light: B1 light with V38Y, G48T
notes: also called VH1VL4
B9: BsAb2-6-030 (bispecific antibody)
heavy: not shown
light: B1 light
notes: also called VH6VL5
B10: BsAb2-6-025 (bispecific antibody)
heavy: not shown
light: B1 light
notes: also called VH5VL5
B11: BsAb2-6-029 (bispecific antibody)
heavy: not shown
light: B1 light with V38Y, G48T
notes: also called VH6VL4 (printed VH6VLA)
B12: BsAb2-6-010 (bispecific antibody)
heavy: not shown
light: B1 light
notes: also called VH2VL5
B13: BsAb2-6-014 (bispecific antibody)
heavy: not shown
light: B1 light with V38Y, G48T
notes: also called VH3VL4
B14: BsAb2-5-014 (bispecific antibody)
heavy: not shown
light: B1 light with V38Y, G48T
notes: also called VH3VL4
B15: BsAb2-5-025 (bispecific antibody)
heavy: not shown
light: B1 light
notes: also called VH5VL5
B16: BsAb2-5-005 (bispecific antibody)
heavy: not shown
light: B1 light
notes: also called VH1VL5
B17: BsAb2-6-009 (bispecific antibody)
heavy: not shown
light: B1 light with V38Y, G48T
notes: also called VH2VL4
B18: BsAb2-5-001 (bispecific antibody)
heavy: not shown
light: QTVVTQEPSLTVSPGGTVTLTCRSSTGAVTTSNYANWVQQKPGQAPRALIGGTNKRAPWTPARFSGSLLGDKAALTLSGVQPEDEAEYYCALWYSNLWVFGGGTKLTVLRTVAAPSVFIFPPSDEQLKSGTASVVCLLNNFYPREAKVQWKVDNALQSGNSQESVTEQDSKDSTYSLSSTLTLSKADYEKHKVYACEVTHQGLSSPVTKSFNRGEC
notes: also called VH1VL1
B19: BsAb2-6-002 (bispecific antibody)
heavy: not shown
light: B18 light with A48G, W59G
notes: also called VH1VL2
B20: BsAb2-5-002 (bispecific antibody)
heavy: not shown
light: B18 light with A48G, W59G
notes: also called VH1VL2
B21: BsAb2-5-022 (bispecific antibody)
heavy: not shown
light: B18 light with A48G, W59G
notes: also called VH5VL2
B22: BsAb2-5-027 (bispecific antibody)
heavy: not shown
light: B18 light with A48G, W59G
notes: also called VH6VL2
B23: BsAb2-6-023 (bispecific antibody)
heavy: not shown
light: B18 light with T2A, A48G, W59G, Y89F
notes: also called VH5VL3
B24: BsAb2-6-008 (bispecific antibody)
heavy: not shown
light: B18 light with T2A, A48G, W59G, Y89F
notes: also called VH2VL3
B25: BsAb2-6-022 (bispecific antibody)
heavy: not shown
light: B18 light with A48G, W59G
notes: also called VH5VL2
B26: BsAb2-6-007 (bispecific antibody)
heavy: not shown
light: B18 light with A48G, W59G
notes: also called VH2VL2
B27: BsAb2-5-007 (bispecific antibody)
heavy: not shown
light: B18 light with A48G, W59G
notes: also called VH2VL2
B28: BsAb2-6-027 (bispecific antibody)
heavy: not shown
light: B18 light with A48G, W59G
notes: also called VH6VL2
B29: BsAb2-5-028 (bispecific antibody)
heavy: not shown
light: B18 light with T2A, A48G, W59G, Y89F
notes: also called VH6VL3
B30: BsAb2-5-023 (bispecific antibody)
heavy: not shown
light: B18 light with T2A, A48G, W59G, Y89F
notes: also called VH5VL3
B31: BsAb2-5-021 (bispecific antibody)
heavy: not shown
light: B18 light
notes: also called VH5VL1
B32: BsAb2-6-028 (bispecific antibody)
heavy: not shown
light: B18 light with T2A, A48G, W59G, Y89F
notes: also called VH6VL3
B33: BsAb2-6-003 (bispecific antibody)
heavy: not shown
light: B18 light with T2A, A48G, W59G, Y89F
notes: also called VH1VL3
B34: BsAb2-5-008 (bispecific antibody)
heavy: not shown
light: B18 light with T2A, A48G, W59G, Y89F
notes: also called VH2VL3
B35: BsAb2-5-003 (bispecific antibody)
heavy: not shown
light: B18 light with T2A, A48G, W59G, Y89F
notes: also called VH1VL3
B36: BsAb2-5-006 (bispecific antibody)
heavy: not shown
light: B18 light
notes: also called VH2VL1
B37: BsAb2-5-026 (bispecific antibody)
heavy: not shown
light: B18 light
notes: also called VH6VL1

T1 sequence (P07766 23-126 limits assumed): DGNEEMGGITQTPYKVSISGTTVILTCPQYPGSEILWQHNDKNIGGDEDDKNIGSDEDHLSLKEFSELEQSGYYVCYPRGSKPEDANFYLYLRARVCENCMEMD

One assay concerns the target T1, human CD3ε recombinant protein (human, UniProt P07766 23-126).
T1 construct: also called human CD3E; huCD3ε
Kind of assay: ELISA, recombinant protein. The method, then: (§1) Anti-HBsAg/anti-CD3 bispecific antibodies generated in Example 1 are analyzed by standard ELISA techniques for their binding properties to HBsAg, human CD3E, and rhesus CD3ε recombinant protein, respectively.
On the technique in general: An ELISA detects its analyte on a solid surface through an enzyme-linked reagent.
Usually EC50 stands for the concentration needed to bring the measured effect to its halfway point. For the molecule B1, the EC50 was 0.28 nM.
Still for that read-out and setting: next, B2: 0.27 nM.

A further assay deals with T2, HBsAg recombinant protein (hepatitis B virus).
T2 chain: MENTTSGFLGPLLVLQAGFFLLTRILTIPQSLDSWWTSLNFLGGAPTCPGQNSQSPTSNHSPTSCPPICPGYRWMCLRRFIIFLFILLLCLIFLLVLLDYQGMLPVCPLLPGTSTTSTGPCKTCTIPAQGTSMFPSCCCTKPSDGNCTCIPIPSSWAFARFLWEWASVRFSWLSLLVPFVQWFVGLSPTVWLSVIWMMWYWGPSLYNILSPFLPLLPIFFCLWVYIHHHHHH
Kind of assay: ELISA, recombinant protein. As to the method: as §1
As for B3, the EC50 turned out to be 0.36 nM.
Turning to B4, the EC50 came to 0.45 nM.
Still for that read-out and setting: as for B5, the figure is 0.53 nM; as for B6, 0.15 nM.
Regarding B1, the 50% effective concentration (EC50) is 0.16 nM.
B7: the EC50 was determined as 0.51 nM.
Still for that read-out and setting: as for B8, the figure is 0.43 nM.
On the same count and under the same terms, as for B9, the figure is 0.48 nM.
Same read-out and setting: next, B10: 1.5 nM; B11: 0.48 nM.
Turning to B12, the EC50 came to 0.46 nM.
Consider B2, for which the half-maximal effective concentration (EC50) was 0.17 nM.
On the same count and under the same terms, as for B13, the figure is 0.31 nM; as for B14, 0.2 nM; as for B15, 0.2 nM.
The same measure, in the same setting: next, B16: 0.15 nM; B17: 0.45 nM; B18: 0.23 nM.
For B19, the concentration giving a half-maximal response (EC50) was 0.46 nM.
For the molecule B20, the half-maximal effective concentration (EC50) worked out at 0.16 nM.
The same measure, in the same setting: next, B21: 0.16 nM; B22: 0.16 nM.
Still for that read-out and setting: next, B23: 1.09 nM; B24: 0.57 nM.
On the same count and under the same terms, next, B25: 0.77 nM; B26: 0.42 nM; B27: 0.23 nM.
As to B28, the concentration for a half-maximal effect (EC50) is 0.72 nM.
B29: the EC50 was determined as 0.19 nM.
On to B30, for which the concentration giving a half-maximal response (EC50) amounted to 0.18 nM.
Still for that read-out and setting: as for B31, the figure is 0.14 nM; as for B32, 0.83 nM; as for B33, 0.47 nM.
The same measure, in the same setting: as for B34, the figure is 0.19 nM; as for B35, 0.21 nM; as for B36, 0.9 nM.
Still for that read-out and setting: next, B37: 0.18 nM.

The next assay has as its target T3, rhesus CD3ε recombinant protein (rhesus).
T3 construct: also called rhesus CD38 [sic]
Kind of assay: ELISA, recombinant protein. As to the method:
as §1
For the molecule B4, the 50% effective concentration (EC50) worked out at 0.18 nM.
On the same count and under the same terms, next, B6: 0.23 nM.
For B1, the EC50 came to 0.26 nM.
Regarding B9, the EC50 came to 0.13 nM.
On the same count and under the same terms, next, B10: 0.5 nM.
With B12, the 50% effective concentration (EC50) worked out at 0.23 nM.
Still for that read-out and setting: next, B2: 0.27 nM; B15: 0.25 nM.
As to B16, the EC50 was determined as 0.31 nM.
The same measure, in the same setting: next, B18: 0.72 nM.
On the same count and under the same terms, as for B19, the figure is 0.14 nM; as for B20, 0.3 nM.
The same measure, in the same setting: next, B21: 0.31 nM; B22: 0.28 nM.
On to B23, for which the EC50 turned out to be 0.26 nM.
Same read-out and setting: as for B24, the figure is 0.28 nM; as for B25, 0.23 nM.
On the same count and under the same terms, as for B26, the figure is 0.19 nM; as for B27, 0.4 nM; as for B28, 0.21 nM.
On the same count and under the same terms, next, B29: 0.31 nM.
As to B30, the EC50 stood at 0.22 nM.
Consider B31, for which the concentration giving a half-maximal response (EC50) came to 3.88 nM.
The same measure, in the same setting: next, B32: 0.21 nM.
The same measure, in the same setting: next, B33: 0.17 nM; B34: 0.24 nM; B35: 0.34 nM.
For the molecule B36, the EC50 worked out at 2.12 nM.
On the same count and under the same terms, next, B37: 2.09 nM.
